Measurements reported in PMC12363406, “Human IgE monoclonal antibodies define two unusual epitopes trapping dog allergen Can f 1 in different conformations” (Protein Science : A Publication of the Protein Society, 2025).

B1: human IgE monoclonal antibody 1J11 (antibody, V domains shown)
VH: QVQLVESGGGVVQPGSSLRLSCAVSGFTVRSYGMHWVRQAPGKGLEWVALILFDGTTKHYADSVKGRFTISRDNSKDTLYLQMTSLGAEDTAMYYCVRDFNQFVKRFVDGPAFDLWGQGTRVTVSS
VL: SYELTQPPSVSVSPGQTANITCSGDKLGDKFTSWYQQRPGQSPVLVIYQDIERPSGIPERFSGSNSGNTATLTISGTQALDEADYYCQAWDTSTVVFGGGTRLTVL
notes: variable region as the heavy chain of m4 (PDB 8VQF); as the light chain of m4 (PDB 8VQF); Human IgE; details of isolation, production and purification are in Supplementary material; also called hIgE mAb 1J11; IgE mAb 1J11; source: B cell hybridomas from allergic subjects; copies: 2 + 2
B2: human IgE monoclonal antibody 12F3 (antibody, V domains shown)
VH: QVQLVQSGAEVQKPGSSVKVSCKASGGTFSRYPLIWVRQTPGQGLEWMGGIFPVIGRTNYAEKFQGRVTITADESTSTAYMELNSLTSEDTAVYYCARLDTYEILGYGTDVWGQGTTVTVSS
VL: EIVLTQSPATLSLSPGERATLSCRASESVSSSVAWYQQKFGQAPRLLIYDASNRATGIPARFSGSGSGTDFTLTISSLEPEDFAVYYCQLRSNWPPLTFGGGTKVQIK
notes: variable region as the heavy chain of m5 (PDB 9NPI); as the light chain of m5 (PDB 9NPI); Human IgE; details of isolation, production and purification are in Supplementary material; also called hIgE mAb 12F3; IgE mAb 12F3; source: B cell hybridomas from allergic subjects; copies: 2 + 2

Biological target: T1, natural Can f 1 (Canis lupus familiaris (dog))
T1 construct: Can f 1, major dog allergen, lipocalin, Canis familiaris; isolated from the natural source; model in the complex with 1J11 Fab starts at Ala5; numbers count on: the mature protein; Natural preparation; also called nCan f 1
T1 sequence (chain, as listed by the source): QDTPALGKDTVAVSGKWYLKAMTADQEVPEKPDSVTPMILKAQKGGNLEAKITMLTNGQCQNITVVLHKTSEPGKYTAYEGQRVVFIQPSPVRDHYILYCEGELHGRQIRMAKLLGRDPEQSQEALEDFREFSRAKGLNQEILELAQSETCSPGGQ
Assay: SPR; localized surface plasmon resonance (LSPR) on an OpenSPR (Nicoya Lifesciences)
Conditions: both partners purified

Binder	Kd
B1	0.2 ± 0.1 nM
B2	3.6 ± 1.3 nM
